From patent US20080274112A1, “Nogo Receptor Antagonists” (priority 2003, published 2008)

Legend:
Nogo66 + sNogoR344-Fc = biological target: T1, Nogo66 + sNogoR344-Fc (Rattus norvegicus, UniProt Q99M75, A303T/C287S/C43R/E284G/T53A); test: mAb/Fab inhibition of Nogo66 binding to sNogoR344-Fc (ELISA)
T1 construct: amino acid residues 26-344 of rat Nogo receptor-1; made in house
T1 sequence (Q99M75 26-344 C43R/T53A/E284G/C287S/A303T): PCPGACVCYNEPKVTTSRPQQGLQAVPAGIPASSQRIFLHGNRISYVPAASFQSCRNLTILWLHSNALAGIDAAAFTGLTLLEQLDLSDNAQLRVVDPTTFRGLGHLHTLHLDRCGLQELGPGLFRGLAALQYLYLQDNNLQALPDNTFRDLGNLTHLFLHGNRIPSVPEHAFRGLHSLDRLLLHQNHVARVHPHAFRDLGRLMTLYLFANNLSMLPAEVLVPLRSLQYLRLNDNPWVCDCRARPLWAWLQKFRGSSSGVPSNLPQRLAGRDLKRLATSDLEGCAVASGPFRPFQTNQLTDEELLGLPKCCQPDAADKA
Method: (§1) 0.5 μg of a soluble Nogo receptor-1 fusion protein comprising amino acid residues 26-344 of rat Nogo receptor-1 and the hinge and Fc region of the rat IgG1 molecule (sNogoR344-Fc) produced as described below was immobilized on 250 μg of protein-A- or wheatgerm agglutinin-conjugated SPA beads (Amersham Pharmacia Biotech) for 2 hours at 25° C. SPA beads coupled with Fc-sNogoR-1, anti-Nogo receptor-1 mAb and 1 μl ^125I-Nogo66 (Amersham, 2000 Ci/mmol, 1 nM) in 50 μl of the HEPES-buffered incubation medium (10 mM HEPES, pH 7.4, 0.1% bovine serum albumin, 0.1% ovalbumin, 2 mM MgCl2, 2 mM CaCl2 and protease inhibitors) was added to each sample well. After 16 hours, radioactivity was measured in quadruplicate samples using a TopCount® (Packard). IC50 values were calculated from a curve-fit analysis (FIG. 3) (PRISM, GraphPad Software, NJ). In some experiments, we also used AP-ligand conjugates (e.g. AP-Nogo66) and detected binding by monitoring alkaline phosphatase activity. We also assayed the ability of the mAbs to block binding of the ligands MAG-Fc and AP-OM-gp to Nogo receptor-1.
The calculated IC50 for Nogo66 for 7E11 and 1H2 were 400 nM and 60 nM, respectively. The data from ELISAs monitoring mAb-mediated inhibition of binding of the three ligands to Nogo receptor-1 are summarized in Table 6.
We also performed ELISA binding assays using the Fab-phage 14D5.

human Nogo receptor-1 = biological target: T2, human Nogo receptor-1 (Homo sapiens, UniProt Q9BZR6); test: Immunohistochemical staining of fixed and live cells expressing human Nogo receptor-1; format: cell-based
T2 construct: expressed in transfected cells; host or cells: COS-7 or 293 cells
T2 sequence (Q9BZR6 27-447): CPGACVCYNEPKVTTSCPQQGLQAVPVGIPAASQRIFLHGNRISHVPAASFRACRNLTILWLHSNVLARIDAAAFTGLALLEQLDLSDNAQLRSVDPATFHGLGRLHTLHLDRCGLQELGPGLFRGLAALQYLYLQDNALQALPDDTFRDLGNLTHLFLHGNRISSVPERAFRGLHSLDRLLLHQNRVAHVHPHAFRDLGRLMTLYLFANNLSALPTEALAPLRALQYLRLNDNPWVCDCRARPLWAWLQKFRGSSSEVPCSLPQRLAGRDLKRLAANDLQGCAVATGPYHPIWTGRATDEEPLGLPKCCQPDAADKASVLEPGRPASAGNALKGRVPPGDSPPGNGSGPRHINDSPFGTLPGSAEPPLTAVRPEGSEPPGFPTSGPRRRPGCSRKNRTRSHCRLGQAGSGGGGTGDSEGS
Method: To further characterize the binding properties of anti-Nogo receptor-1 mAbs produced as described in Example 1, we compared binding to both fixed and live COS-7 or 293 cells expressing rat or human Nogo receptor-1.
Nogo receptor-1 transfected and non-transfected cells were plated in 8-well Lab-Tek® culture slides, fixed with 4% paraformaldehyde for 15 minutes, blocked with 10% normal goat serum, 0.1% Triton X-100 in PBS for 1 hour. Mab 7E11 was added at 15 μg/ml and 1.5 μg/ml in blocking solution and incubated for 2 hours at room temperature; Alexa®-conjugated secondary antibody anti-mouse (Molecular Probes) was incubated at a 1:300 dilution in blocking solution for 1 hour; DAPI was added at 5 μg/ml to the secondary antibody to label all nuclei.
Transfected and non-transfected cells were plated in 8 well Lab-Tek® culture slides, blocked with FACS buffer (containing 4% donor horse serum) for 30 minutes at 4° C., incubated with 7E11 at 15 μg/ml and 1.5 μg/ml in FACS buffer for 1 hour at 4° C., rinsed and incubated with secondary antibody anti-mouse-Alexa® (1:300 in FACS buffer) for 30 minutes at 4° C.

[1] = biological target: T3, sNogoR344-Fc (residues 26-344 of rat Nogo receptor-1) (Rattus norvegicus, UniProt Q99M75, A303T/C287S/C43R/E284G/T53A); test: Inhibition of 125I-Nogo66 binding to sNogoR344-Fc on SPA beads; conditions: curve-fit
T3 construct: amino acid residues 26-344 of rat Nogo receptor-1; made in house
T3 sequence (Q99M75 26-344 C43R/T53A/E284G/C287S/A303T): T1 sequence (Q99M75 26-344 C43R/T53A/E284G/C287S/A303T)
Method: as §1

[2] = biological target: polypeptide p-617 (SEQ ID NO: 1) (Rattus norvegicus, UniProt Q99M75); test: Specificity ELISA on polypeptide p-617; format: binding
Source text: To determine the specificity of the monoclonal and Fab-phage antibodies produced in Examples 1 and 2, we performed an ELISA using a panel of Nogo receptor-1 polypeptides. The panel consisted of sNogoR310-Fc (a fusion protein comprising amino acids 26-310 of rat Nogo receptor-1 and a rat Fc fragment), sNogoR344-Fc (see supra), polypeptide p-617 (SEQ ID NO: 1), polypeptide p-618 (a 19-amino acid polypeptide from the LRR7 region of rat Nogo receptor-1; FIG. 2; SEQ ID NO: 11) and polypeptides p-4 and p-5 (polypeptides from the LRR5 and LRRCT regions of Nogo receptor-1, respectively). Ovalbumin and BSA were used as controls.

B1: 7E11: murine monoclonal anti-Nogo receptor-1 antibody, IgG1 kappa, ATCC PTA-4587; immunogen rat Nogo receptor-1 residues 110-125 (antibody, V domains shown)
VH: VQLQESGAELVMPGASVKMSCKASGYTFTDYWMHWVKQRPGQGLEWIGAIDPSDSYSSYNQNFKGKATLTVDGSSSTAYMQLSSLTSEDSAVYYCARRITEAGAWFAYWGQGTTVT
VL: DVVMTQTPLSLPVSLGDQASISCRSSQSLVHSNGNTYLHWYLQKPGQSPKLLIYKVSNRFSGVPDRFSGSGSGTDFTLKISRVDAEDLGVYFCSQSTHVPFTFGGGTKLEIKRADAAPTVSISHH
inhibition of binding of Nogo66 to sNogoR344-Fc (Nogo66 + sNogoR344-Fc): inhibited binding
EC50 (Nogo66 + sNogoR344-Fc; curve-fit analysis): 1.7 µM
binding to cells expressing human Nogo receptor-1 (human Nogo receptor-1): bound both fixed and live cells
IC50 [1]: 0.4 µM
binding to polypeptide p-617 [2]: specifically bound
